Source: US20220041715A1

Assays:
[1] = biological target: CoV-2 S (R683A, R685A) (SARS-CoV-2) (UniProt P0DTC2); test: ELISA
[2] = biological target: CoV-2 RBD (V367F) (SARS-CoV-2) (UniProt P0DTC2); test: ELISA
[3] = biological target: CoV-2 RBD (N354D, D364Y) (SARS-CoV-2) (UniProt P0DTC2); test: ELISA
[4] = biological target: CoV-2 S (D614G) (SARS-CoV-2) (UniProt P0DTC2); test: ELISA
[5] = biological target: CoV-2 RBD (N354D) (SARS-CoV-2) (UniProt P0DTC2); test: ELISA
[6] = biological target: CoV-2 RBD (W436R) (SARS-CoV-2) (UniProt P0DTC2); test: ELISA
[7] = biological target: spike of SARS-CoV-2 variant B.1.351 (South Africa) on pseudotype virus (SARS-CoV-2) (UniProt P0DTC2); test: cell-based or functional assay
[8] = biological target: spike of SARS-CoV-2 variant B.1.427/B.1.429 (California) on pseudotype virus (SARS-CoV-2) (UniProt P0DTC2); test: cell-based or functional assay
[9] = biological target: spike of SARS-CoV-2 variant P.1 (Japanese/Brazilian) on pseudotype virus (SARS-CoV-2) (UniProt P0DTC2); test: cell-based or functional assay
[10] = biological target: spike of SARS-CoV-2 variant B.1.1.7 (UK) on pseudotype virus (SARS-CoV-2) (UniProt P0DTC2); test: cell-based or functional assay

Substance	EC50 [1]	EC50 [2]	EC50 [3]	EC50 [4]	EC50 [5]	EC50 [6]	pseudotype virus neutralization IC50 relative to Wuhan-Hu-1 [7]	pseudotype virus neutralization IC50 relative to Wuhan-Hu-1 [8]	pseudotype virus neutralization IC50 relative to Wuhan-Hu-1 [9]	pseudotype virus neutralization IC50 relative to Wuhan-Hu-1 [10]
IVIG (Gamunex; Grifols) (antibody)	2840 µg/mL	1130 µg/mL	1320 µg/mL	1330 µg/mL	1240 µg/mL	1240 µg/mL				
rCIG (recombinant coronavirus-2 immune globulin; recombinant anti-coronavirus 19 hyperimmune gammaglobulin) (antibody)	0.09 µg/mL	0.07 µg/mL	0.08 µg/mL	0.05 µg/mL	0.07 µg/mL	0.07 µg/mL	< 6 fold	< 6 fold	< 6 fold	< 6 fold
